Here are results for two molecules from doi:10.1101/2021.12.30.474394.

One assay concerns the target mutant CycT14MUT(280) (UniProt O60563). Briefly: co-IP.
For another assay, the target named is mutant CycT14MUT (UniProt O60563). Briefly: co-IP.

B1: WT Siah2 (enzyme)
chain: MSRPSSTGPSANKPCSKQPPPQPQHTPSPAAPPAAATISAAGPGSSAVPAAAAVISGPGGGGGAGPVSPQHHELTSLFECPVCFDYVLPPILQCQAGHLVCNQCRQKLSCCPTCRGALTPSIRNLAMEKVASAVLFPCKYATTGCSLTLHHTEKPEHEDICEYRPYSCPCPGASCKWQGSLEAVMSHLMHAHKSITTLQGEDIVFLATDINLPGAVDWVMMQSCFGHHFMLVLEKQEKYEGHQQFFAIVLLIGTRKQAENFAYRLELNGNRRRLTWEATPRSIHDGVAAAIMNSDCLVFDTAIAHLFADNGNLGINVTISTCCP
Regarding B1, the fold change of co-IP against WT CycT1(280) with mutant CycT14MUT(280) was 8.9 fold. In the assay with mutant CycT14MUT, this molecule gave a fold change of co-IP against WT CycT1 of 8.3 fold.

B2: DN Siah1C75S (enzyme)
chain: MSRQTATALPTGTSKCPPSQRVPALTGTTASNNDLASLFECPVCFDYVLPPILQCQSGHLVCSNCRPKLTCCPTSRGPLGSIRNLAMEKVANSVLFPCKYASSGCEITLPHTEKADHEELCEFRPYSCPCPGASCKWQGSLDAVMPHLMHQHKSITTLQGEDIVFLATDINLPGAVDWVMMQSCFGFHFMLVLEKQEKYDGHQQFFAIVQLIGTRKQAENFAYRLELNGHRRRLTWEATPRSIHEGIATAIMNSDCLVFDTSIAQLFAENGNLGINVTISMC
For B2, in the assay with mutant CycT14MUT(280), the fold change of co-IP against WT CycT1(280) stood at 5.1 fold. Also, the fold change of co-IP against WT CycT1 with mutant CycT14MUT was 5.7 fold.
